Measurements: article PMC6323126, “Architecture, substructures, and dynamic assembly of STRIPAK complexes in Hippo signaling” (Cell Discovery, 2019)

B1: SLMAP CC1 (residues 167–226) (domain or fragment, human, UniProt Q14BN4 167-226, looked up)
chain: QLSQYLQEALHREQMLEQKLATLQRLLAITQEASDTSWQALIDEDRLLSRLEVMGNQLQA
notes: Homodimer within the 2:2 crystal complex; source: E. coli BL21 (DE3) CodonPlus, purified
B2: FHA domain (residues 5–135) of SLMAP (domain or fragment, human, UniProt Q14BN4 5-135, looked up)
chain: LAIFTCRPNSHPFQERHVYLDEPIKIGRSVARCRPAQNNATFDCKVLSRNHALVWFDHKTGKFYLQDTKSSNGTFINSQRLSRGSEESPPCEILSGDIIQFGVDVTENTRKVTHGCIVSTIKLFLPDGMEA
notes: also called SLMAP (FHA); SLMAP FHA domain; source: E. coli BL21 (DE3) CodonPlus, purified

Columns and labels:
[1] = target: T1, SIKE1 CC1 (residues 5–65) (human, UniProt Q9BRV8 5-65); experiment: not stated; Kd of the minimal regions, Supplementary Fig. S7c; method not given; details: both partners purified
T1 construct: SIKE1, human, residues 5-65; Homodimer within the 2:2 crystal complex; also called residues 5–65 of SIKE1; source: E. coli BL21 (DE3) CodonPlus, purified
T1 sequence (looked up): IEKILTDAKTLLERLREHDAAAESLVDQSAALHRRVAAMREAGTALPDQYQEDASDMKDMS

[2] = target: T1, SIKE1 CC1 (residues 5–65); experiment: crystal structure; SIKE1 CC1-SLMAP CC1 complex reconstituted 1:1 and gel-filtered, 2.3 Å; 0.1 M sodium citrate (pH 5.5), 15% PEG 6000, 16 °C; details: both partners purified
[3] = target: the molecule itself; experiment: as above
[4] = target: T2, MST4 kinase domain (residues 1–300) (human, UniProt Q9P289 1-300); experiment: pull-down; pulldown with purified recombinant proteins shown in supplementary figures; whether GST or MBP and who carried the tag not told; details: both partners purified
T2 construct: MST4 (STK26), human, residues 1-300; also called N-terminal kinase domain of MST4; source: E. coli BL21 (DE3) CodonPlus, purified

[5] = target: T3, MST4 (recombinant) (human, UniProt Q9P289 1-416); experiment: as above; details: both partners purified
T3 construct: MST4 (STK26), human; also called STK26; source: E. coli BL21 (DE3) CodonPlus, purified

[6] = target: T4, MST2 (recombinant, wildtype) (human, UniProt Q13188 1-491); experiment: as above; details: both partners purified
T4 construct: MST2 (STK3), human; also called STK3; Hippo kinase MST2; source: E. coli BL21 (DE3) CodonPlus, purified
T4 sequence (looked up): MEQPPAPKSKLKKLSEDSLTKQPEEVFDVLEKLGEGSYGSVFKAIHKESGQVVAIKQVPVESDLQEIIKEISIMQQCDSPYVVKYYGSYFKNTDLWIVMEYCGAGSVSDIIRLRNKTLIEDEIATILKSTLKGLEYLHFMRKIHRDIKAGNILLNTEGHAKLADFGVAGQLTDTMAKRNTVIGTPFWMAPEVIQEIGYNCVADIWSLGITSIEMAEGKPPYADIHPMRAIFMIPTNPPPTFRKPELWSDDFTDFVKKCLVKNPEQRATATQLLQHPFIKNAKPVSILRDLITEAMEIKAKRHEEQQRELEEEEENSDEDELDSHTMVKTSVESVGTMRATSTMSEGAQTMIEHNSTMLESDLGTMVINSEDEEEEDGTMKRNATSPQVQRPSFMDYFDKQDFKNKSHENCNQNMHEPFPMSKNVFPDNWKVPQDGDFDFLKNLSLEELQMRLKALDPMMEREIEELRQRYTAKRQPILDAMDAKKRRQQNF

[7] = target: T5, MST2 kinase domain (residues 1–308) (human, UniProt Q13188 1-308); experiment: pull-down; GST pulldown: GST-tagged protein, partner and glutathione Sepharose mixed at 4 °C for 1 h in 20 mM HEPES (pH 7.5), 100 mM NaCl; eluted with 20 mM reduced glutathione; SDS-PAGE, Coomassie staining; details: both partners purified
T5 construct: also called kinase domain of MST2; source: E. coli BL21 (DE3) CodonPlus, purified
T5 sequence (looked up): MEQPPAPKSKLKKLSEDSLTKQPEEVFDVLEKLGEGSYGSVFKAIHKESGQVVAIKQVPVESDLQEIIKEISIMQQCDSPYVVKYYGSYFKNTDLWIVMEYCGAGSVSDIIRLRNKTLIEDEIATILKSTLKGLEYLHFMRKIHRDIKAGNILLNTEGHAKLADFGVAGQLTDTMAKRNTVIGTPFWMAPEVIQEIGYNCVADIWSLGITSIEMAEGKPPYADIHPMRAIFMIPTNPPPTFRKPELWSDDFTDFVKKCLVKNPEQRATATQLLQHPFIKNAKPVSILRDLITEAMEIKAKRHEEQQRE

T2 sequence (Q9P289 1-300): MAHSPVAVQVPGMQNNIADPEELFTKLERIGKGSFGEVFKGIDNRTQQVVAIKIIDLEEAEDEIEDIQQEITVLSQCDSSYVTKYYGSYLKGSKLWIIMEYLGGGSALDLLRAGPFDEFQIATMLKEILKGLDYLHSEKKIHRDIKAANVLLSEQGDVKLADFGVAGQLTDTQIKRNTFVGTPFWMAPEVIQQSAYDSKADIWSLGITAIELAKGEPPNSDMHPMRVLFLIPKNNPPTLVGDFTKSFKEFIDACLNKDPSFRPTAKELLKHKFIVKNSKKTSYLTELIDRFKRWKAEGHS
T3 sequence (Q9P289 whole entry): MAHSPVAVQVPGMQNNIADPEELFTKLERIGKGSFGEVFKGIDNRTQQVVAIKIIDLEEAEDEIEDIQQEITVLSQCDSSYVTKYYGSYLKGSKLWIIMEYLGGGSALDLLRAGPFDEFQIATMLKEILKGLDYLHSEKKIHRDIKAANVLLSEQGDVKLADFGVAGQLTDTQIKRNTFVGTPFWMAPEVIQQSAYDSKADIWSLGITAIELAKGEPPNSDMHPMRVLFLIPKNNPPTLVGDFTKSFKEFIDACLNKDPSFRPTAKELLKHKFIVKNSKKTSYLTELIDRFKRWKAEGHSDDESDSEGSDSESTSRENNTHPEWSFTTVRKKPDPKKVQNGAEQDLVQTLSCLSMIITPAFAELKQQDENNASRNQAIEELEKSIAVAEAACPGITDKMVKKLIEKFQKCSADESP

Row | Binder | Kd [1] [µM] | stoichiometry N [2] | stoichiometry N [3] | binding result [4] | binding result [5] | binding result [6] | binding result [7]
1 | B1 | 6.9 | 1 SIKE1 CC1 per SLMAP CC1 (2:2) | 2 |  |  |  | 
2 | B2 |  |  |  | binds | binds | binds | binds
